Assay results taken from patent US20120077210A1 (COMMONWEALTH SCIENTIFIC AND INDUSTRIAL RESEARCH ORGANISATION, published 2012).

Biological target: T1, Odr10 labelled with GFP2 at the C-terminus (C. elegans)
T1 construct: Fusion protein expressed in S. cerevisiae Invsc1; Assayed in living yeast cells (BRET2) and as digitonin-solubilised crude membrane (co-immunoprecipitation); also called odr-10-GFP2; Odr10-GFP2
Assay: co-immunoprecipitation with anti-GFP antibody from a mixture of solubilised membranes that expressed each fusion separately (control)
Protocol: Membrane protein solubilisation and immunoprecipitation procedures were modified according to the method described by Ayoub et al. (2002). Crude membrane was solubilised with 0.5% digitonin (Sigma) and this mixture was stirred for 3 h at 4° C. Non-solubilised membrane proteins were removed by centrifugation at 18,000×g for 30 mins at 4° C. The digitonin concentration was adjusted to 0.2% using cold Buffer B and the polyclonal anti-GFP antibodies (Sapphire Bioscience, Cat No 120-29000) were added to a final dilution of 1:1000. Immune complex formation was allowed to proceed for 12 h at 4° C. with gentle agitation and Protein A-agarose suspension (Sigma) was added to a final volume of 1:10 (agarose suspension:sample) for incubation for another 6 h with gentle agitation at 4° C. After centrifugation for 1 min at 5000×g, supernatant was decanted and the agarose beads washed five times with 0.5 ml of cold Buffer C (Buffer B+0.2% digitonin). Precipitates were analysed by assessing luciferase activity in a luminometer (BMGLabtech) using coelenterazine as substrate (Biosynth AG, Switzerland).
Oligomerisation of Odr-10 in the living yeast cells was confirmed by the pairwise expression of receptor-Rluc and -GFP² fusion, followed by precipitation using anti-green fluorescence protein antibodies and measuring co-immunoprecipitated luciferase activity. […]

B1: Odr10 labelled with Rluc at the C-terminus (receptor)
chain: MSGELWITLVDTADIVGVTLTFCVNIVLLGLLKTRGKNLGTYKYLMAFFSVFSIFYAIIEFILRPIMHIENTTFFLISRKRFNYSTKLGKINSAFYCACFATSFVVSGVHFVYRYFATCKPNLLRLFNLPTLLLWPLGCSVPVTMWASVSYFLYPDTEYTEAAVTNVLNNHYNWIKKENVSYIAYVYYQYENGVRHIYLKNLLGCFVHYFVMSMTFVVMFYCGYATWKTMNEHKDVSDRTRALQKQLFKALVLQTLIPTIFMYAPTGVMFIAPFFDVNLNANANFIVFCSFLYPGLDPLILILIIRDFRRTIFNFLCGKKNSVDESRSTTRANLSQVPTMTSKVYDPEQRKRMITGPQWWARCKQMNVLDSFINYYDSEKHAENAVIFLHGNAASSYLWRHVVPHIEPVARCIIPDLIGMGKSGKSGNGSYRLLDHYKYLTAWFELLNLPKKIIFVGHDWGACLAFHYSYEHQDKIKAIVHAESVVDVIESWDEWPDIEEDIALIKSEEGEKMVLENNFFVETMLPSKIMRKLEPEEFAAYLEPFKEKGEVRRPTLSWPREIPLVKGGKPDVVQIVRNYNAYLRASDDLPKMFIESDPGFFSNAIVEGAKKFPNTEFVKVKGLHFSQEDAPDEMGKYIKSFVERVLKNEQ
notes: Fusion protein expressed in S. cerevisiae Invsc1; Assayed in living yeast cells (BRET2) and as digitonin-solubilised crude membrane (co-immunoprecipitation); also called odr-10-Rluc; Odr10-Rluc
luciferase activity recovered relative to co-expressed odr-10-GFP^2 and odr-10-Rluc: < 20%
